# Reference: article PMC10546976
# Columns and labels:
# neuPABP (PABPC1L2) = assay: EMSA; conditions: […] (100 nM), 1 h at 30 C, pH not stated
# PABPC1 = PABPC1 (UniProt P11940 1-636); assay: EMSA
# Chain of PABPC1 (P11940 whole entry): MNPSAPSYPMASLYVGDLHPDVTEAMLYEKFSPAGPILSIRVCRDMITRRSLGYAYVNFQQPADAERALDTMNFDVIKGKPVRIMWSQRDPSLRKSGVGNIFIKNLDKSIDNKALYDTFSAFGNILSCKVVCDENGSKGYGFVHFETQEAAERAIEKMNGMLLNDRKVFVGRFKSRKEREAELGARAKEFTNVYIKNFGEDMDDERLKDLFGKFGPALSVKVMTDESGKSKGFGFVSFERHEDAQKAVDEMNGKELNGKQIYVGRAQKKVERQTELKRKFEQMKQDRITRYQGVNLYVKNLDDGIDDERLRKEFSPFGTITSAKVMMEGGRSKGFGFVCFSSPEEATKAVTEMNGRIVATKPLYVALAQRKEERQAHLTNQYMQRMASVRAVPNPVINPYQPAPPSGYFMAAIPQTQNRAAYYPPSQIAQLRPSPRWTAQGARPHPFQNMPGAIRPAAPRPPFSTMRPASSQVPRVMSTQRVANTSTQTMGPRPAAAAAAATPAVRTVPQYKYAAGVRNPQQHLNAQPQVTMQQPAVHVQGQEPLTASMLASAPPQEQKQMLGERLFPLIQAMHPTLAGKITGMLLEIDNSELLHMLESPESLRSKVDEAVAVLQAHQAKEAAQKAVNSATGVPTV
Molecule,Kd (neuPABP (PABPC1L2)) [nM],Kd (PABPC1) [nM]
AAAAAAAAAAAAAAAAAAAAAAAAA [oligo(A)25],50,–
AAAAAAAAAAAAAAAAAAAAAAAAA (ssRNA) [oligo(A)25],–,~50
